In publication PMC4282956 (Journal of immunology (Baltimore, Md. : 1950), 2014):

Biological target: HLA-B*57:01.L82R/LF9 (human | )
Experiment: SPR

Kd: 35.5 ± 8.34 µM
B1: Soluble KIR3DL1*001 (receptor)
chain: HMGGQDKPFLSAWPSAVVPRGGHVTLRCHYRHRFNNFMLYKEDRIHIPIFHGRIFQESFNMSPVTTAHAGNYTCRGSHPHSPTGWSAPSNPVVIMVTGNHRKPSLLAHPGPLVKSGERVILQCWSDIMFEHFFLHKEGISKDPSRLVGQIHDGVSKANFSIGPMMLALAGTYRCYGSVTHTPYQLSAPSDPLDIVVTGPYEKPSLSAQPGPKVQAGESVTLSCSSRSSYDMYHLSREGGAHERRLPAVRKVNRTFQADFPLGPATHGGTYRCFGSFRHSPYEWSDPSDPLLVSVTGNPS
